# Measured values taken from article PMC12786146.
# Molecular target: MARY-MVP (protamine-tagged human major vault protein)
# Experiment: dynamic light scattering; DLS radii at varying MARY-MVP (0 to 7.3 nM) with INT-CFP fixed at 8.3 nM, pH 6.5 phosphate buffer, 50 mM NaCl, 1.5 mM MgCl2, after concentration
substance,measurement,value
MARY-MVP (protamine-tagged human major vault protein),concentration of the transition from monomer to VLP,5 nM
